Reference: doi:10.1101/2025.02.18.638599

Target: AcrA S273C (Escherichia coli) (UniProt P0AE06)
Experiment: cryo-EM structure

stoichiometry N: 6
Substance: AcrA S273C (from UniProt P0AE06 25-397) (natural protein)
